Legend:
A875 cells = assay: Melanoma cell line viability assay (CellTiter-Glo); format: cell-based, human; settings: ADC 1×10^−4 to 10 μg/mL, 5 days
A375R cells = assay: Melanoma cell line viability assay (CellTiter-Glo); format: cell-based, human; settings: ADC 1×10^−4 to 10 μg/mL, 5 days
M016 cells = assay: Patient-derived low passage melanoma culture viability assay; format: cell-based, human; settings: ADC 8 days
SKMEL147 cells = assay: Melanoma cell line viability assay (CellTiter-Glo); format: cell-based, human; settings: ADC 1×10^−4 to 10 μg/mL, 5 days
SKMEL28R cells = assay: Melanoma cell line viability assay (CellTiter-Glo); format: cell-based, human; settings: ADC 1×10^−4 to 10 μg/mL, 5 days
M019R cells = assay: Patient-derived low passage melanoma culture viability assay; format: cell-based, human; settings: ADC 8 days
SKMEL28 cells = assay: Melanoma cell line viability assay (CellTiter-Glo); format: cell-based, human; settings: ADC 1×10^−4 to 10 μg/mL, 5 days
M082 cells = assay: Patient-derived low passage melanoma culture viability assay; format: cell-based, human; settings: ADC 8 days
PC9-ER cells = assay: In vitro cytotoxicity assay, erlotinib-resistant NSCLC cell line; format: cell-based, human
A431 tumors = assay: Therapeutic A431 xenograft model; format: in vivo, SCID mice; settings: 3 mg/kg intraperitoneally, model produces high levels of Gas6
Method: (§1) Tumor induction was performed by subcutaneous injection of 5×10^6 A431 or LCLC-103H tumor cells (both obtained from Leibniz-Institut—Deutsche Sammlung von Mikroorganismen and Zellkulturen GmbH (DSMZ)) in 200 μL PBS in the right flank of female SCID mice. Treatment was started 14-21 days after tumor cell inoculation, when the average tumor size was >100-200 mm^3 and distinct tumor growth was observed. Mice received a single injection or a total of 4 biweekly intraperitoneal injections with IgG1-AXL-vcMMAE ADCs or control antibody (unconjugated IgG1-b12), as indicated. Tumor volume was determined at least two times per week. Tumor volumes (mm^3) were calculated from caliper (PLEXX) measurements as: 0.52×(length)×(width)2.

CEXF 773 tumors = assay: Cervix carcinoma PDX model CEXF 773; format: in vivo, NMRI nu/nu mice; settings: 4 mg/kg i.v. on day 0 and day 7
Method: The anti-tumor activity of IgG1-AXL-183-vcMMAE and IgG1-AXL-726-vcMMAE was evaluated in the patient derived cervix carcinoma xenograft CEXF 773 model in NMRI nu/nu mice (Harlan, Netherlands). Experiments were performed by Oncotest (Freiburg, Germany).
Tumor fragments were obtained from xenografts in serial passage in nude mice. After removal from donor mice, tumors were cut into fragments (4-5 mm diameter) and placed in PBS (with 10% penicillin/streptomycin) until subcutaneous implantation. Mice under isofluorane anesthesia received unilateral, subcutaneous tumor implants in the flank. Tumors were allowed to grow until the tumor volume was 50-250 mm^3.
The treatment groups were: IgG1-b12, IgG1-b12-vcMMAE, IgG1-AXL-183-vcMMAE and IgG1-AXL-726-vcMMAE. The antibodies and ADCs were dosed intravenously (i.v.) at 4 mg/kg on the day of randomization (day 0) and on day 7. Tumor volumes (mm^3) were monitored twice weekly and were calculated from caliper (PLEXX) measurements as: 0.52×(length)×(width)^2.

[1] = tested on: LCLC-103H xenograft tumors; assay: Therapeutic LCLC-103H xenograft model; format: in vivo, SCID mice
Method: 5×10^6 LCLC-103H (large cell lung carcinoma) tumor cells (obtained from Leibniz-Institut DSMZ-Deutsche Sammlung von Mikroorganismen and Zellkulturen GmbH (DSMZ)) in 200 μL PBS were injected subcutaneously in the right flank of female SCID mice. Starting 14-21 days after tumor cell inoculation, when the average tumor size was >100-200 mm^3 and distinct tumor growth was observed, a single injection with 1 mg/kg (20 μg/mouse) IgG1-AXL-vcMMAE antibodies (as described in Supplementary Example 1) or control (unconjugated IgG1-b12) was given intraperitoneally (100 μL/mouse). Tumor volume was determined at least two times per week. Tumor volumes (mm^3) were calculated from caliper (PLEXX) measurements as: 0.52×(length)×(width)^2.
as §1

MDA-MB-231 tumors = assay: Orthotopic MDA-MB-231-luc D3H2LN breast cancer xenograft model; format: in vivo, SCID mice; settings: 4 biweekly doses of 3 mg/kg
Method: The anti-tumor activity of IgG1-AXL-183-vcMMAE and IgG1-AXL-726-vcMMAE was evaluated in an orthotopic MDA-MB-231 D3H2LN xenograft model.
MDA-MB-231-luc D3H2LN Bioware cells (mammary gland adenocarcinoma; Perkin Elmer, Waltham, Mass.) were implanted in the mammary fat pad of 6-11 week old, female SCID (C.B-17/IcrPrkdc-scid/CRL) mice (Charles-River) under isofluorane anesthesia. Tumors were allowed to grow and mice were randomized when tumors reached a volume of ^˜325 mm^3. […] The treatment groups were: IgG1-b12, IgG1-b12-vcMMAE, IgG1-AXL-183-vcMMAE and IgG1-AXL-726-vcMMAE. The animals received a total of 4 biweekly doses of 3 mg/kg antibody or ADC starting at the day of randomization. Tumor volumes (mm^3) were monitored twice weekly and were calculated from caliper (PLEXX) measurements as: 0.52×(length)×(width)^2.

LCLC-103H cells = settings: 5 days
A431 cells = settings: A431 (n = 3), 5 days
MDA-MB231 cells = settings: MDA-MB231 (n = 2), 5 days
PAXF1657 tumors = assay: PAXF1657 pancreas cancer PDX model; format: in vivo, NMRI nu/nu mice
Method: Human pancreas tumor tissue was subcutaneously implanted in the left flank of 5-7 weeks old female NMRI nu/nu mice. […] At day of randomization (day 0), the 3 ADCs were dosed intravenously (i.v.) at either 4 mg/kg or 2 mg/kg, and the control group received a single dose of IgG1-b12 (4 mg/kg). Tumor volumes (mm^3) were monitored twice weekly and were calculated from caliper (PLEXX) measurements as: 0.52×(length)×(width)^2.

[2] = Example 13: 3 mg/kg intraperitoneally

For `CCCS(=O)(=O)Nc1ccc(F)c(C(=O)c2c[nH]c3ncc(Cl)cc23)c1F` [PLX4720, N-(3-(5-chloro-1H-pyrrolo[2,3-b]pyridine-3-carbonyl)-2,4-difluorophenyl)propane-1-sulfonamide, reference compound], the “sensitivity of the cell line to the substance” value (A875 cells) was “sensitive”, the “sensitivity of the cell line to the substance” value (A375R cells) was “resistant” and the “sensitivity of the culture to the substance” value (from here on “sensitivity of the culture”) (M016 cells) was “resistant”. The “sensitivity of the cell line to the substance” value (SKMEL147 cells) was “resistant”, the “sensitivity of the cell line to the substance” value (SKMEL28R cells) was “resistant” and the “sensitivity of the culture” value (M019R cells) was “resistant”. The “sensitivity of the cell line to the substance” value (SKMEL28 cells) was “sensitive” and the “sensitivity of the culture” value (M082 cells) was “resistant”.

With `C#Cc1cccc(Nc2ncnc3cc(OCCOC)c(OCCOC)cc23)c1` [erlotinib, reference compound] the “sensitivity of the cell line (cell viability)” value (PC9-ER cells) was “acquired resistance”.

B1: IgG1-AXL-183-vcMMAE: IgG1-AXL-183 (FN1-binder) conjugated to vcMMAE (conjugate)
VH: QVQLQQWGAGLLKPSETLSLTCAVYGGSFSGYYWSWIRQPPGKGLEWIGEINQSGSTNYNPSLKSRVTISVDTSKNQFSLKLSSVTAADTSVYYCASGNWDHFFDYWGQGTLVTVSS
VL: DIQMTQSPSSVSASVGDRVTITCRASQGISSWLAWYQHKPGKAPKLLIYATSSLQSGVTSRFSGSGSGTDFTLTISSLQPEDFATYYCQQAKSFPWTFGQGTKVEIK
B1 was tested, and the anti-tumor activity (A431 tumors) was “induced growth inhibition”, the anti-tumor activity (CEXF 773 tumors) was “induced tumor regression” and the anti-tumor activity [1, 2] was “induced tumor regression”. The anti-tumor activity (MDA-MB-231 tumors) was “induced tumor regression”.

B2: IgG1-AXL-148-vcMMAE: IgG1-AXL-148 conjugated at cysteines to vcMMAE (conjugate)
VH: EVQLLESGGGLVQPGGSLRLSCAASGFTFSSYAMTWVRQAPGKGLEWVSAISISGGSTFYADSVKGRFTISRDNSKNTLYLQMNSLRAEDTAVYYCRGYSGYVYDAFDFWGQGTMVTVSS
VL: DIQMTQSPSSLSASVGDRVTITCRASQGISNWLAWYQQKPEKAPKSLIYAASSLQSGVPSRFSGSGSGTDFTLTISSLQPEDFATYYCQQYNSYPLTFGGGTKVEIK
In the case of B2, the “Cytotoxicity EC50” value (LCLC-103H cells) is reported as 0.012 µg/mL, the “Cytotoxicity EC50 Mean” value (A431 cells) is reported as 0.070 µg/mL and the anti-tumor activity (A431 tumors) is reported as “induced growth inhibition”. For the same molecule, the “Cytotoxicity EC50 Mean” value (MDA-MB231 cells) was 0.012 µg/mL, the anti-tumor activity ([1]; Example 9: single injection 1 mg/kg intraperitoneally) was “induced tumor regression” and the anti-tumor activity [1, 2] was “induced tumor regression”. For the same molecule, the anti-tumor activity (PAXF1657 tumors; 2 mg/kg i.v. at day 0) was “significantly reduced the growth”, the anti-tumor activity (PAXF1657 tumors; 4 mg/kg i.v. at day 0) was “induced tumor regression” and the anti-tumor activity (PAXF1657 tumors; dose not stated in the sentence (FIG. 10B, 10C)) was “dose-dependent antitumor activity”.

B3: IgG1-AXL-726-vcMMAE: IgG1-AXL-726 (FN2-binder) conjugated to vcMMAE (conjugate)
VH: QVQLQQWGAGLLKPSETLSLTCAIDGGSFSGYYWSWIRQPPGKGLEWIGEISHSGRTNYNPSLKSRVTISIDTSKNQFSLKLSSVAAADTAVYYCARFITMIRGAIITHFDYWGQGALVTVSS
VL: DIQMTQSPSSLSASVGDRVTITCRASQGISSWLAWYQQKPEKAPKSLIYAASSLQSGVPSRFSGSGSGTDFTLTISSLQPEDFATYYCQQYHSYPYTFGQGTKLEIK
For B3, the anti-tumor activity (A431 tumors) was “induced growth inhibition”, the anti-tumor activity (CEXF 773 tumors) was “induced tumor regression” and the anti-tumor activity [1, 2] was “induced tumor regression”. For the same molecule, the anti-tumor activity (MDA-MB-231 tumors) was “induced tumor regression”.

Source: patent US20200397913A1, “AXL-SPECIFIC ANTIBODY-DRUG CONJUGATES FOR CANCER TREATMENT” (GENMAB A/S, priority 2015, published 2020)
